Drawing on patent US20260150817A1 (LEVERAGEN, published 2026), this text covers IC50 for 8 molecules.

Where a chain is given by its changes, count along the chain named.

To fix the notation:
B1: M2S521_623 Nb-Fc (Fc fusion)
chain: EVQLQQSGPELVKPGASVKISCKASGYTFTDYYMKWEKQSHGKSLEWIGDINPNNGGTRYNQKFRGKATLTVDKSSSTAYMELRSLTSEDSAVYYCARLEDDYYGYAVDYWGQGTSVTVSS
notes: also called LVGN-S521623
B2: M2S521_193 Nb-Fc (Fc fusion)
chain: B1 chain with E37V, T58A, R65K, K67R, A97S, D102G
notes: also called LVGN-S521193
B3: MS521_35 Nb-Fc (Fc fusion)
chain: EVQLQQSGPELVKPGASVKISCKASGYTFTDYYMKWVKQRHGQSLEWIGNINPTNGDTNYSQNFKGKATLTVDKSSTTAYMELRSLTSEDSAVYYCARLEDGYYGYAVDYWGQGTSVTVSS
notes: also called LVGN-S52135
B4: M2S521_378 Nb-Fc (Fc fusion)
chain: B1 chain with E37V, N54K, R59N, R65K, G66D, D102G, V108I, G112S
notes: also called LVGN-S521378
B5: M2S521_72 Nb-Fc (Fc fusion)
chain: B1 chain with E37A, D50H, N54V, G57D, R59S, R65K, A79V, D102G, A107T, V108M
notes: also called LVGN-S52172
B6: M320_5 Nb-Fc (Fc fusion)
chain: EVQLQQSGPELVKPGASVKMSCKASGYTFTDYYIKWEKQSHGKSLEWIGDINPKNGETFYNQQFKGKATLTVDKSSSTAYMQLNSLTSEDSAVYYCARKEYGDYGYAVDYWGQGTSVTVSS
notes: also called LVGN-S3205
B7: M2S320_377 Nb-Fc (Fc fusion)
chain: B6 chain with I34V, E37K, K54N, E57D, Q63K, G66D, D103N, Y104F
notes: also called LVGN-S320377
B8: M2S320_75 Nb-Fc (Fc fusion)
chain: B6 chain with I34M, E37L, S40N, K54N, E57D, Q63K, K74T, V108T
notes: also called LVGN-S32075

One assay addresses T1, Spike protein of the COVID-19 Spike-ACE2 Binding Assay Kit (Raybiotech) (SARS-CoV-2, UniProt P0DTC2 319-541).
On to B1, for which the IC50 was 0.13 nM.
With B2, the IC50 was determined as 0.16 nM.
On the same count and under the same terms, the figure for B3 is 0.49 nM.
The molecule B4 returned an IC50 of 2.2 nM.
On the same count and under the same terms, the result for B5 reads 0.041 nM; that for B6, 0.4 nM.
Still for that read-out and setting: the result for B7 reads 1.6 nM; that for B8, 0.12 nM.

A further assay addresses T1, Spike protein of the COVID-19 …. The source holds these as a separate data set.
For B3, the IC50 was determined as 0.489 nM.
Same read-out and setting: the figure for B6 is 0.397 nM.

The IC50 is the concentration that gives 50% inhibition. A high value points to lower potency.
